Reference: the Immune Epitope Database (IEDB)

Columns and labels:
[1] = molecular target: HLA-B*44:02; experiment: IEDB peptide-MHC binding, purified MHC/direct/fluorescence; filed as Kd, often an IC50 or EC50 that approximates it; ≥ and ≤ were set here for values at or beyond the usual limits of such assays; conditions: source organism: Brucella abortus
[2] = molecular target: HLA-A*02:11; experiment: as above; conditions: source organism: Brucella suis 1330
[3] = molecular target: HLA-A*02:01; experiment: as above; conditions: source organism: Brucella abortus
[4] = molecular target: HLA-B*27:05; experiment: as above; conditions: source organism: Brucella abortus
[5] = molecular target: HLA-A*26:01; experiment: as above; conditions: source organism: Brucella suis 1330
[6] = molecular target: HLA-B*08:01; experiment: as above; conditions: source organism: Brucella suis 1330
[7] = molecular target: HLA-B*15:01; experiment: as above; conditions: source organism: Brucella abortus
[8] = molecular target: HLA-B*40:01; experiment: as above; conditions: source organism: Brucella abortus
[9] = molecular target: HLA-B*07:02; experiment: as above; conditions: source organism: Brucella abortus
[10] = molecular target: HLA-A*02:12; experiment: as above; conditions: source organism: Brucella suis 1330
[11] = molecular target: HLA-A*69:01; experiment: as above; conditions: source organism: Brucella abortus
[12] = molecular target: HLA-C*12:03; experiment: as above; conditions: source organism: Brucella abortus bv. 1 str. 9-941
[13] = molecular target: HLA-A*31:01; experiment: as above; conditions: source organism: Brucella abortus
[14] = molecular target: HLA-A*02:19; experiment: as above; conditions: source organism: Brucella suis 1330
[15] = molecular target: HLA-A*01:01; experiment: as above; conditions: source organism: Brucella abortus
[16] = molecular target: HLA-A*03:01; experiment: as above; conditions: source organism: Brucella abortus
[17] = molecular target: HLA-A*11:01; experiment: as above; conditions: source organism: Brucella abortus
[18] = molecular target: HLA-B*58:01; experiment: as above; conditions: source organism: Brucella abortus
[19] = molecular target: HLA-A*02:03; experiment: as above; conditions: source organism: Brucella suis 1330
[20] = molecular target: HLA-B*40:02; experiment: IEDB peptide-MHC binding, cellular MHC/competitive/fluorescence; ≥ and ≤ were set here for values at or beyond the usual limits of such assays; conditions: source organism: Homo sapiens
[21] = molecular target: HLA-A*02:01; experiment: as above; conditions: source organism: Homo sapiens
[22] = molecular target: HLA-B*27:05; experiment: IEDB peptide-MHC binding, purified MHC/competitive/fluorescence; ≥ and ≤ were set here for values at or beyond the usual limits of such assays; conditions: source organism: hepatitis C virus genotype 1a
[23] = molecular target: HLA-B*52:01; experiment: IEDB peptide-MHC binding, purified MHC/competitive/radioactivity; filed as Kd, often an IC50 or EC50 that approximates it; ≥ and ≤ were set here for values at or beyond the usual limits of such assays; conditions: source organism: Homo sapiens
[24] = molecular target: HLA-B*48:01; experiment: IEDB peptide-MHC binding, purified MHC/competitive/fluorescence; filed as Kd, often an IC50 or EC50 that approximates it; ≥ and ≤ were set here for values at or beyond the usual limits of such assays; conditions: source organism: Mycobacterium tuberculosis variant bovis BCG str. Pasteur 1173P2
[25] = molecular target: HLA-B*15:17; experiment: as above; conditions: source organism: Mycobacterium tuberculosis variant bovis BCG str. Pasteur 1173P2
[26] = molecular target: HLA-A*02:01; experiment: as above; conditions: source organism: Mycobacterium tuberculosis variant bovis BCG str. Pasteur 1173P2
[27] = molecular target: HLA-A*30:01; experiment: as above; conditions: source organism: Mycobacterium tuberculosis variant bovis BCG str. Pasteur 1173P2
[28] = molecular target: HLA-B*27:05; experiment: as above; conditions: source organism: Mycobacterium tuberculosis variant bovis BCG str. Pasteur 1173P2
[29] = molecular target: HLA-B*39:01; experiment: as above; conditions: source organism: Mycobacterium tuberculosis variant bovis BCG str. Pasteur 1173P2
[30] = molecular target: HLA-A*02:06; experiment: as above; conditions: source organism: Mycobacterium tuberculosis variant bovis BCG str. Pasteur 1173P2
[31] = molecular target: HLA-B*15:01; experiment: as above; conditions: source organism: Mycobacterium tuberculosis variant bovis BCG str. Pasteur 1173P2
[32] = molecular target: HLA-B*18:01; experiment: as above; conditions: source organism: Mycobacterium tuberculosis variant bovis BCG str. Pasteur 1173P2
[33] = molecular target: HLA-B*51:01; experiment: as above; conditions: source organism: Mycobacterium tuberculosis variant bovis BCG str. Pasteur 1173P2
[34] = molecular target: HLA-B*40:01; experiment: as above; conditions: source organism: Mycobacterium tuberculosis variant bovis BCG str. Pasteur 1173P2
[35] = molecular target: HLA-B*15:09; experiment: as above; conditions: source organism: Mycobacterium tuberculosis variant bovis BCG str. Pasteur 1173P2
[36] = molecular target: HLA-B*15:42; experiment: as above; conditions: source organism: Mycobacterium tuberculosis variant bovis BCG str. Pasteur 1173P2
[37] = molecular target: HLA-A*69:01; experiment: as above; conditions: source organism: Mycobacterium tuberculosis variant bovis BCG str. Pasteur 1173P2
[38] = molecular target: HLA-A*31:01; experiment: as above; conditions: source organism: Mycobacterium tuberculosis variant bovis BCG str. Pasteur 1173P2
[39] = molecular target: HLA-B*57:01; experiment: as above; conditions: source organism: Mycobacterium tuberculosis variant bovis BCG str. Pasteur 1173P2
[40] = molecular target: HLA-A*01:01; experiment: as above; conditions: source organism: Mycobacterium tuberculosis variant bovis BCG str. Pasteur 1173P2
[41] = molecular target: HLA-A*03:01; experiment: as above; conditions: source organism: Mycobacterium tuberculosis variant bovis BCG str. Pasteur 1173P2
[42] = molecular target: HLA-B*45:06; experiment: as above; conditions: source organism: Mycobacterium tuberculosis variant bovis BCG str. Pasteur 1173P2
[43] = molecular target: HLA-B*46:01; experiment: as above; conditions: source organism: Mycobacterium tuberculosis variant bovis BCG str. Pasteur 1173P2
[44] = molecular target: HLA-A*11:01; experiment: as above; conditions: source organism: Mycobacterium tuberculosis variant bovis BCG str. Pasteur 1173P2
[45] = molecular target: HLA-B*35:01; experiment: as above; conditions: source organism: Mycobacterium tuberculosis variant bovis BCG str. Pasteur 1173P2
[46] = molecular target: HLA-B*58:01; experiment: as above; conditions: source organism: Mycobacterium tuberculosis variant bovis BCG str. Pasteur 1173P2
[47] = molecular target: HLA-A*02:03; experiment: as above; conditions: source organism: Mycobacterium tuberculosis variant bovis BCG str. Pasteur 1173P2
[48] = molecular target: HLA-B*83:01; experiment: as above; conditions: source organism: Mycobacterium tuberculosis variant bovis BCG str. Pasteur 1173P2

Q: KLYERNTAF was tested. Which Kd [1] did it give?
A: The Kd was no less than 20000 nM.

Q: What about the Kd [2] of the same sequence?
A: Its Kd is 9 nM.

Q: What about the Kd [3] of the same sequence?
A: Its Kd is 286 nM.

Q: And the Kd [4]?
A: Its Kd is 325 nM.

Q: What about the Kd [5] of the same sequence?
A: Its Kd is no less than 20000 nM.

Q: And the Kd [6]?
A: Its Kd is 112 nM.

Q: What about the Kd [7] of the same sequence?
A: The Kd was 57.8 nM.

Q: What about the Kd [8] of the same sequence?
A: Its Kd is no less than 20000 nM.

Q: What about the Kd [9] of the same sequence?
A: The Kd was no less than 20000 nM.

Q: And the Kd [10]?
A: Its Kd is 88 nM.

Q: And the Kd [11]?
A: Its Kd is no less than 20000 nM.

Q: What about the Kd [12] of the same sequence?
A: The Kd was 266 nM.

Q: And the Kd [13]?
A: The Kd was 138 nM.

Q: And the Kd [14]?
A: Its Kd is no less than 5000 nM.

Q: What about the Kd [15] of the same sequence?
A: Its Kd is no less than 20000 nM.

Q: And the Kd [16]?
A: The Kd was 511 nM.

Q: What about the Kd [17] of the same sequence?
A: The Kd was 3990 nM.

Q: What about the Kd [18] of the same sequence?
A: The Kd was 284 nM.

Q: What about the Kd [19] of the same sequence?
A: The Kd was 27 nM.

Q: GSFSRFYSL was tested. Which IC50 [20] did it give?
A: Its IC50 is 300 nM.

Q: For FLMDFIHQV, which IC50 [21] is on record?
A: Its IC50 is 240 nM.

Q: How did the IC50 [22] turn out when GSAAICGKY was run?
A: Its IC50 is 4820 nM.

Q: QQITQTEV was tested. Which Kd [23] did it give?
A: Its Kd is no less than 30200 nM.

Q: Which Kd [24] does the source give for KPIPHRTVL here?
A: The Kd was no less than 20000 nM.

Q: What about the Kd [25] of the same sequence?
A: The Kd was no less than 20000 nM.

Q: And the Kd [26]?
A: The Kd was no less than 20000 nM.

Q: And the Kd [27]?
A: Its Kd is 763 nM.

Q: And the Kd [28]?
A: The Kd was no less than 20000 nM.

Q: What about the Kd [29] of the same sequence?
A: Its Kd is 18.8 nM.

Q: What about the Kd [30] of the same sequence?
A: Its Kd is 2830 nM.

Q: What about the Kd [31] of the same sequence?
A: The Kd was no less than 20000 nM.

Q: What about the Kd [32] of the same sequence?
A: The Kd was no less than 20000 nM.

Q: And the Kd [33]?
A: Its Kd is no less than 20000 nM.

Q: What about the Kd [34] of the same sequence?
A: Its Kd is no less than 20000 nM.

Q: What about the Kd [35] of the same sequence?
A: Its Kd is 1320 nM.

Q: And the Kd [36]?
A: The Kd was no less than 5000 nM.

Q: And the Kd [37]?
A: The Kd was no less than 20000 nM.

Q: What about the Kd [38] of the same sequence?
A: Its Kd is no less than 20000 nM.

Q: What about the Kd [39] of the same sequence?
A: The Kd was no less than 20000 nM.

Q: What about the Kd [40] of the same sequence?
A: Its Kd is 570 nM.

Q: And the Kd [41]?
A: The Kd was 2290 nM.

Q: And the Kd [42]?
A: Its Kd is no less than 5000 nM.

Q: What about the Kd [43] of the same sequence?
A: The Kd was no less than 20000 nM.

Q: What about the Kd [44] of the same sequence?
A: Its Kd is 125 nM.

Q: What about the Kd [45] of the same sequence?
A: The Kd was 623 nM.

Q: And the Kd [46]?
A: Its Kd is no less than 20000 nM.

Q: What about the Kd [47] of the same sequence?
A: Its Kd is no less than 20000 nM.

Q: And the Kd [48]?
A: The Kd was 762 nM.
